Assay results: paper PMC11500415, “Chemical inhibition of stomatal differentiation by perturbation of the master-regulatory bHLH heterodimer via an ACT-Like domain” (Nature Communications, 2024)

B1: SCREAM (SCRM), recombinant full-length protein (1-494) (natural protein, A. thaliana, UniProt Q9LSE2 1-494, looked up)
chain: MGLDGNNGGGVWLNGGGGEREENEEGSWGRNQEDGSSQFKPMLEGDWFSSNQPHPQDLQMLQNQPDFRYFGGFPFNPNDNLLLQHSIDSSSSCSPSQAFSLDPSQQNQFLSTNNNKGCLLNVPSSANPFDNAFEFGSESGFLNQIHAPISMGFGSLTQLGNRDLSSVPDFLSARSLLAPESNNNNTMLCGGFTAPLELEGFGSPANGGFVGNRAKVLKPLEVLASSGAQPTLFQKRAAMRQSSGSKMGNSESSGMRRFSDDGDMDETGIEVSGLNYESDEINESGKAAESVQIGGGGKGKKKGMPAKNLMAERRRRKKLNDRLYMLRSVVPKISKMDRASILGDAIDYLKELLQRINDLHNELESTPPGSLPPTSSSFHPLTPTPQTLSCRVKEELCPSSLPSPKGQQARVEVRLREGRAVNIHMFCGRRPGLLLATMKALDNLGLDVQQAVISCFNGFALDVFRAEQCQEGQEILPDQIKAVLFDTAGYAGMI
notes: SCRM (ICE1), A. thaliana, residues 1-494; called full-length in the results; The methods describe thrombin removal of GST for all recombinant proteins; For the BLI runs of SCRM with MUTE one partner must have kept GST (anti-GST probes); also called ICE1; source: E. coli BL21, purified (glutathione resin, thrombin digestion, Superdex-200); not shown: GST, N-terminal, cleaved
B2: MUTE, recombinant full-length protein (1-202), as used in ITC (natural protein, A. thaliana, UniProt Q9M8K6 1-202, looked up)
chain: MSHIAVERNRRRQMNEHLKSLRSLTPCFYIKRGDQASIIGGVIEFIKELQQLVQVLESKKRRKTLNRPSFPYDHQTIEPSSLGAATTRVPFSRIENVMTTSTFKEVGACCNSPHANVEAKISGSNVVLRVVSRRIVGQLVKIISVLEKLSFQVLHLNISSMEETVLYFFVVKIGLECHLSLEELTLEVQKSFVSDEVIVSTN
notes: called full-length in the results; source: E. coli BL21, purified (glutathione resin, thrombin digestion, Superdex-200); not shown: GST, N-terminal, cleaved

Key:
[1] = system: Arabidopsis wild-type (WT) seedlings; experiment: Stomatal development bioassay, seedlings in liquid culture; type: in vivo; conditions: 50 μM; WT seedlings, liquid culture
Description: Arabidopsis accession Columbia (Col-0) was used as wild-type. […] Their genotype and transcript reduction were confirmed. The presence of transgenes/mutant alleles were confirmed by genotyping. For liquid culture with Stomidazolone (AYSJ929, compound 3), the analogs (AYSJ1059 (compound 5) and AYSJ1061 (compound 6)), degraded compound lzx103 (compound 4), and SIM3* (compound 7), all compounds were dissolved in dimethyl sulfoxide (DMSO, Molecular biology grade, Fujifilm Wako, Japan 046-21981), Col-0 seeds were sown in 96-well plates (TL5003; True Line) containing 95 μL of 1/2 MS media containing 0.5% sucrose with rotary shaking at 140 rpm under continuous light at 22 °C. Five μL of compounds were dissolved in DMSO at 10 mM and diluted with liquid 1/2 MS media to 1 mM and added on 1-day-old seedlings (final concentration, 50 μM). Seedlings were incubated for 8 days, and at day 9 seedling abaxial cotyledons were observed through confocal microscopy. For liquid culture of scrm-D_S343 and scrm-D_S423, 1/2 MS liquid media without sucrose was used. For the solid culture, 0, 20, 50 or 100 μM Stomidazolone were solidified with low-melting agarose (5805S, PrimeGelTM Agarose LMT 1-20 K, TAKARA Bio). Briefly, 1/2 MS salt, 0.5% sucrose, and 0.8% low melting agarose were mixed in water and autoclaved. After cooling the medium at around 30 °C, Stomidazolone (500x, dissolved in DMSO) was added and poured into 90 mm petri dishes (Asnol Petri Dish JP φ90 x 15 mm, 3-1491-01, AS ONE). Col-0 seeds were sown on Stomidazolone-containing 1/2 MS agarose media and grown under continuous light for 9 days.
For confocal microscopy, cell peripheries of seedlings were visualized with propidium iodide (Sigma, P4170). Images were acquired using LSM800 or LSM700 (Zeiss) using a 20x lens. The GFP, YFP reporter and PI signals were detected with excitation at 488 nm and an emission filter of 410 to 546 nm, at 488 nm and an emission filter of 410 to 546 nm, and with excitation at 561 nm and 582–617 nm emission range, respectively. Raw data were collected with 1024 × 1024 pixel images. For qualitative image presentation, Adobe Photoshop CC was used to trim and uniformly adjust the contrast/brightness.
For quantitative analysis of the abaxial leaf epidermis, confocal images were taken on the days after germination as indicated in the Figure legends. Preparation of images was done as described previously[32],[70]. For counting epidermal cell types, stomatal density, stomatal precursor cells (meristemoids), total stomata-lineage cells (stomata and meristemoids) were calculated by counting cell types in an area of 0.4 mm^2 (0.63 mm × 0.63 mm) and plotted as per mm^2. A series of Z-stack confocal images was obtained to obtain images covering the epidermis and capturing GFP/YFP signal from the reporter lines. The area and the number of epidermal cells were quantified by using FIJI-ImageJ. Statistical analyses were performed using R ver. 4.0.2. Sample sizes (n) are indicated and defined in each legend. For the multiple sample comparison, 1-way ANOVA was performed followed by a post hoc Tukey HSD test. For the two-sample comparison, Student’s T-test was performed. Graphs were generated using R ggplot2 package. For all boxplots, each box represents IQR (interquartile range), in which top, middle line, and bottom indicating 75, 50, and 25 percentiles, respectively, and the bar representing maximum to minimal values. Each magenta dot represents jittered individual data point. The datapoints that go beyond the bar are outliers, which are indicated as black dots. If the data point is greater than Q3 + 1.5*IQR (above the third quartile is greater than 1.5 times of the interquartile range) or less than Q1 − 1.5*IQR, that data point is classified as outlier. The color of Boxplot graph was based on ColorBrewer.org. The value of n, the number of each experiment or samples, the means of error bars, and how statistical significance was defined are indicated in a relevant figure legend. […]

[2] = system: stomatal movement; set-up: method as in PMID 35042960; conditions: previous chemical screens and SAR studies; cited from earlier work
[3] = biological target: T1, SCRM-FAMA heterodimer (Arabidopsis thaliana, UniProt Q56YJ8); experiment: Y2H growth and quantitative α-galactosidase assay; type: cell-based; conditions: 50 μM; 1 mM 3-AT; N-terminally truncated FAMA
T1 construct: truncated SPCH and FAMA proteins lacking their N-terminal domain were used in yeast; expressed in transfected cells; host or cells: yeast strain AH109
Description: (§1) Y2H assays were performed using the Matchmaker^TM Two-Hybrid System (Clontech). Bait (pGBKT7) and prey (pGADT7) constructs were co-transformed into the yeast strain AH109 using Frozen-EZ Yeast Transformation II Kit (Zymo Research, T2001). The resulting transformants were spotted on SD ( − Leu, −Trp) and SD ( − Trp, −Leu, −His) selection media containing different concentrations of 3-amino-1,2,4-triazole (Sigma, A8056) as previously reported. Quantitative α-galactosidase assay was also performed according to manufactural instruction (Clontech). Briefly, the transformants were incubated in 2 ml SD medium with 0, 10, 50 100 μM Stomidazolone (3) or SIM3* (7) with rotary shake (220 rpm) at 30 °C overnight. The cultured media containing yeast were transferred to microtubes and centrifuged to obtain the supernatant. The colorimetric assay was performed by incubating 8 μL of supernatant with 24 μL Assay Buffer that contains 0.5 M sodium acetate (pH 4.5) (Nakalai tesque, 31137-25): 100 mM p-nitrophenyl α-D-Galactopyranoside Solution (Sigma N0877) = 2:1 (v/v) at 30 °C for 60 min, then terminated by adding 960 μL 1X Stop Solution (0.1 M sodium carbonate, Fujifilm Wako 195-01582). After OD410 was recorded, α-galactosidase units were calculated according to the protocol (Clontech, P3024-1).

[4] = biological target: T2, SCRM-MUTE heterodimer (Arabidopsis thaliana, UniProt Q9M8K6); experiment: Y2H growth and quantitative α-galactosidase assay; type: cell-based; conditions: 50 μM; 1 mM 3-AT
T2 construct: expressed in transfected cells; host or cells: yeast strain AH109
T2 sequence (Q9M8K6 1-202): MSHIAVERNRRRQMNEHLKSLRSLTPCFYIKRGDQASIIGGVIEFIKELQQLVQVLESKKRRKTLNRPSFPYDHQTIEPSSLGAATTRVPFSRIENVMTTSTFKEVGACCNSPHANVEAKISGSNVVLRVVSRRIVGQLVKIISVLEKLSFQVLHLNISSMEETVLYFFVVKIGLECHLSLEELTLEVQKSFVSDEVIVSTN
Description: as §1

[5] = biological target: T3, SCRM-SPCH heterodimer (Arabidopsis thaliana, UniProt Q700C7); experiment: Y2H growth and quantitative α-galactosidase assay; type: cell-based; conditions: 50 μM; 1 mM 3-AT; N-terminally truncated SPCH
T3 construct: truncated SPCH and FAMA proteins lacking their N-terminal domain were used in yeast; expressed in transfected cells; host or cells: yeast strain AH109
T3 sequence (Q700C7 98-364 limits assumed): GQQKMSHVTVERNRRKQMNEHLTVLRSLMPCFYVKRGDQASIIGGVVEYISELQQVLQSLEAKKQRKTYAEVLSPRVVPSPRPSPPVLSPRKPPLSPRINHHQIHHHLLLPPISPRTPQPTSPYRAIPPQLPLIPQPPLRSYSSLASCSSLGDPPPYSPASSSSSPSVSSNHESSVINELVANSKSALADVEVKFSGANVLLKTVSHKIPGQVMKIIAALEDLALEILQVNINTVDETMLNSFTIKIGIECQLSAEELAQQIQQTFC
Description: as §1

[6] = biological target: B2; experiment: ITC; SCRM to MUTE, no compound; Malvern PEAQ-ITC; PBS with 2% DMSO and 1 mM DTT; methods: 30 °C, pH 7.4; legend of Supplementary Table 2: pH 7.2, 25 °C; means of two experiments; conditions: both partners purified
[7] = biological target: B2; experiment: ITC; SCRM to MUTE pre-incubated with Stomidazolone (3); Malvern PEAQ-ITC; PBS with 2% DMSO and 1 mM DTT; methods: 30 °C, pH 7.4; legend of Supplementary Table 2: pH 7.2, 25 °C; conditions: both partners purified
[8] = biological target: B2; experiment: ITC; SCRM to MUTE in the presence of AYSJ1059 (5); Malvern PEAQ-ITC; PBS with 2% DMSO and 1 mM DTT; methods: 30 °C, pH 7.4; legend of Supplementary Table 2: pH 7.2, 25 °C; conditions: both partners purified
[9] = biological target: B2; experiment: ITC; SCRM to MUTE in the presence of AYSJ1061 (6); Malvern PEAQ-ITC; PBS with 2% DMSO and 1 mM DTT; methods: 30 °C, pH 7.4; legend of Supplementary Table 2: pH 7.2, 25 °C; conditions: both partners purified
[10] = biological target: B1; experiment: ITC; SCRM to MUTE in the presence of AYSJ1059 (5); Malvern PEAQ-ITC; PBS with 2% DMSO and 1 mM DTT; methods: 30 °C, pH 7.4; legend of Supplementary Table 2: pH 7.2, 25 °C; conditions: both partners purified
[11] = biological target: B1; experiment: ITC; SCRM to MUTE in the presence of AYSJ1061 (6); Malvern PEAQ-ITC; PBS with 2% DMSO and 1 mM DTT; methods: 30 °C, pH 7.4; legend of Supplementary Table 2: pH 7.2, 25 °C; conditions: both partners purified

T1 sequence (Q56YJ8 190-414, one chain of several): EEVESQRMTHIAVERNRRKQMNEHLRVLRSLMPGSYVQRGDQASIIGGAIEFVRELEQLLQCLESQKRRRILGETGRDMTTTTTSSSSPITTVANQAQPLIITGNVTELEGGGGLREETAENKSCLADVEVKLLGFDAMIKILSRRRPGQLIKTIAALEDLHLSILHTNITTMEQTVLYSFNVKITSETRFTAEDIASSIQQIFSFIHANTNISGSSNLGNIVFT

Molecule: Cc1nc(-c2ccccc2)c(NS(=O)(=O)c2ccccc2)o1 [SIM3*, reference compound]
effect on stomatal development (in words) [1]: no effects | effect on stomatal movement (in words) [2]: inhibit stomatal movement | effect on association in Y2H growth assay [3]: no effects | effect on association in Y2H growth assay [4]: no effects | effect on association in Y2H growth assay [5]: no effects

Molecule: B1
stoichiometry N [6]: 0.96 | stoichiometry N [7]: 0.91 | stoichiometry N [8]: 1 | stoichiometry N [9]: 1.1

Molecule: B2
Kd [10]: 9.6 ± 1.8 nM | Kd [11]: 11.4 ± 2.1 nM
